A short description of data set [1]: αIIbβ3 cell surface expression, flow cytometry. The following applies: glycan lost; control: wild-type αIIb with β3. (Flow cytometry measures light scatter and fluorescence of single cells or particles in a stream.)
Data set [2] in a line: eptifibatide-induced mAb binding, flow cytometry. The following applies: glycan lost; control: wild-type αIIb with β3.
A short description of data set [3]: surface expression by mAbs 10E5, AP2, AP3, flow cytometry. The following applies: glycan lost; control: wild-type αIIbβ3.
Data set [4] is described as follows: β3-K716A-mediated mAb binding, flow cytometry. The following applies: glycan lost; control: wild-type αIIb with active β3-K716A.

This passage reports expression_or_secretion and structure_or_conformation results from publication PMC5498496.

As for integrin αIIb subunit: αIIb-N15Q, the expression_or_secretion result in data set [1] was “no change”.

For the substance integrin αIIb subunit: αIIb-N570Q, the expression_or_secretion result in data set [1] is given as “decreases”. On the same count and under the same terms, then integrin αIIb subunit: αIIb-N680Q, with “decreases”; and integrin αIIb subunit: αIIb-N931Q, with “decreases”.

For the substance integrin αIIb subunit: αIIb-N931S, the structure_or_conformation result in data set [2] is “no change”. Regarding integrin αIIb subunit: αIIb-N15S, in data set [2], the structure_or_conformation result is listed as “no change”. Further, the expression_or_secretion entry in data set [3] was “no change”. As to integrin αIIb subunit: αIIb-N249S, the structure_or_conformation result in data set [2] and in data set [4] was “no change” each time. In the case of integrin αIIb subunit: αIIb-N249Q, the expression_or_secretion entry in data set [1] is given as “decreases”.
